According to US7741541:

Biological target: barnase (ribonuclease from Bacillus amyloliquefaciens) (Bacillus amyloliquefaciens) (UniProt P00648)
Assay: cell-based or functional assay

Sequence of UniProt P00648 (P00648 48-157 limits assumed): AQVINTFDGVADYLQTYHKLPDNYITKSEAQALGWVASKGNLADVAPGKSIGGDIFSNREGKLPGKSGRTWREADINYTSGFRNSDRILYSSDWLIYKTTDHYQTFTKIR

With “barstar protein (product of the wild type and of the modified barstar gene of Bacillus amyloliquefaciens) (from UniProt P11540 2-90)” the Percent of restored (male fertile) plants after transformation of barnase line bn 3.6 with construct A, A9-bs(fm)::TA29-bs(wt) was 89.8%, the Percent of restored (male fertile) plants after transformation of barnase line bn 3.6 with construct B, TA29-bs(wt) was 65.6% and the Percent of restored (male fertile) plants after transformation of barnase line bn 3.6 with construct C, A9-bs(wt) was 12.7%. The Percent of restored (male fertile) plants after transformation of barnase line bn 3.6 with construct D, A9-bs(fm) was 10.8%.
